Experimental data from paper PMC8115694, “Distinct axial and lateral interactions within homologous filaments dictate the signaling specificity and order of the AIM2-ASC inflammasome” (Nature Communications, 2021).

B1: AIM2^PYD filament construct with ~20 a.a. of the unstructured linker (residues 1-117), untagged (domain or fragment, human, UniProt O14862 1-117, looked up)
chain: MESKYKEILLLTGLDNITDEELDRFKFFLSDEFNIATGKLHTANRIQVATLMIQNAGAVSAVMKTIRIFQKLNYMLLAKRLQEEKEKVDKQYKSVTKPKPLSQAEMSPAASAAIRND
notes: AIM2 (absent in melanoma 2), human, residues 1-117: PYD plus ~20 a.a. of the unstructured linker; Helical filament; 2.75 uM protein cleaved for 30 min with 6 uM TEVp before freezing; also called AIM2^IRND; source: MBP cleaved with TEVp; not shown: MBP, N-terminal, cleaved
B2: AIM2^PYD (residues 1-94) S94C, fluorophore-labelled (domain or fragment, human, UniProt O14862 1-94, looked up)
chain: MESKYKEILLLTGLDNITDEELDRFKFFLSDEFNIATGKLHTANRIQVATLMIQNAGAVSAVMKTIRIFQKLNYMLLAKRLQEEKEKVDKQYKC
modifications: fluorophore label (Alexa488 or Dylight550; FRET donor or acceptor); S94C for fluorophore labeling
notes: AIM2, human, pyrin domain, residues 1-94; Polymerisation is triggered by cleaving MBP with TEVp; the protein stands as nascent monomer or as preassembled filament; also called MBP-AIM2^PYD; source: MBP cleaved with TEVp in the assay; not shown: MBP, N-terminal, cleaved

Tests used:
[1] = target: the molecule itself; experiment: cryo-EM structure; helical reconstruction of the untagged AIM2 (1-117) filament; 2.75 uM protein cleaved for 30 min with 6 uM TEVp
[2] = target: the molecule itself; experiment: confocal fluorescence microscopy of fluor-labelled recombinant filaments; two differentially labelled (Alexa488, Dylight550) MBP-tagged PYD populations mixed at 1:1 ratio (1 uM each), polymerisation triggered by cleaving MBP with TEVp

Protein	binding result [1]	binding result [2]
B1	binds	–
B2	–	binds
